Data reported in the supplement of paper PMC5998384.

Key:
[1] = tested on: HeLa Kyoto; experiment: solubility in G1/S (NP-40 vs SDS abundance) (log2 ratio); higher = more soluble; conditions: cell cycle stage: G1/S
[2] = tested on: HeLa Kyoto; experiment: solubility change mitosis vs G1/S (difference of NP-40 vs SDS log2 ratios) (log2 ratio difference); higher = more soluble in mitosis
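Wherever solubility change mitosis vs G1/S (difference of NP-40 vs SDS log2 ratios) is given: synchronized HeLa Kyoto cells (double thymidine block for G1/S, nocodazole release for mitosis), protein amounts in NP-40 versus SDS lysates quantified by mass spectrometry, three biological replicates.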
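Wherever solubility in G1/S (NP-40 vs SDS abundance) is given: HeLa Kyoto cells arrested at G1/S by double thymidine block, proteins quantified by TMT10plex mass spectrometry in mild NP-40 versus SDS extracts, three biological replicates.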

| Sequence | solubility in G1/S (log2) [1] | solubility change mitosis (log2) [2] |
| --- | --- | --- |
| MNYPGRGSPRSPEHNGRGGGGGAWELGSDARPAFGGGVCCFEHLPGGDPDDGDVPLALLRGEPGLHLAPGTDDHNHHLALDPCLSDENYDFSSAESGSSLRYYSEGESGGGGSSLSLHPPQQPPLVPTNSGGGGATGGSPGERKRTRLGGPAARHRYEVVTELGPEEVRWFYKEDKKTWKPFIGYDSLRIELAFRTLLQTTGARPQGGDRDGDHVCSPTGPASSSGEDDDEDRACGFCQSTTGHEPEMVELVNIEPVCVRGGLYEVDVTQGECYPVYWNQADKIPVMRGQWFIDGTWQPLEEEESNLIEQEHLNCFRGQQMQENFDIEVSKSIDGKDAVHSFKLSRNHVDWHSVDEVYLYSDATTSKIARTVTQKLGFSKASSSGTRLHRGYVEEATLEDKPSQTTHIVFVVHGIGQKMDQGRIIKNTAMMREAARKIEERHFSNHATHVEFLPVEWRSKLTLDGDTVDSITPDKVRGLRDMLNSSAMDIMYYTSPLYRDELVKGLQQELNRLYSLFCSRNPDFEEKGGKVSIVSHSLGCVITYDIMTGWNPVRLYEQLLQKEEELPDERWMSYEERHLLDELYITKRRLKEIEERLHGLKASSMTQTPALKFKVENFFCMGSPLAVFLALRGIRPGNTGSQDHILPREICNRLLNIFHPTDPVAYRLEPLILKHYSNISPVQIHWYNTSNPLPYEHMKPSFLNPAKEPTSVSENEGISTIPSPVTSPVLSRRHYGESITNIGKASILGAASIGKGLGGMLFSRFGRSSTTQSSETSKDSMEDEKKPVASPSATTVGTQTLPHSSSGFLDSAYFRLQESFFNLPQLLFPENVMQNKDNALVELDHRIDFELREGLVESRYWSAVTSHTAYWSSLDVALFLLTFMYKHEHDDDAKPNLDPI [DDHD1] | -0.175 | 0.134 |
| MPALACLRRLCRHVSPQAVLFLLFIFCLFSVFISAYYLYGWKRGLEPSADAPEPDCGDPPPVAPSRLLPLKPVQAATPSRTDPLVLVFVESLYSQLGQEVVAILESSRFKYRTEIAPGKGDMPTLTDKGRGRFALIIYENILKYVNLDAWNRELLDKYCVAYGVGIIGFFKANENSLLSAQLKGFPLFLHSNLGLKDCSINPKSPLLYVTRPSEVEKGVLPGEDWTVFQSNHSTYEPVLLAKTRSSESIPHLGADAGLHAALHATVVQDLGLHDGIQRVLFGNNLNFWLHKLVFVDAVAFLTGKRLSLPLDRYILVDIDDIFVGKEGTRMKVEDVKALFDTQNELRAHIPNFTFNLGYSGKFFHTGTNAEDAGDDLLLSYVKEFWWFPHMWSHMQPHLFHNQSVLAEQMALNKKFAVEHGIPTDMGYAVAPHHSGVYPVHVQLYEAWKQVWSIRVTSTEEYPHLKPARYRRGFIHNGIMVLPRQTCGLFTHTIFYNEYPGGSSELDKIINGGELFLTVLLNPISIFMTHLSNYGNDRLGLYTFKHLVRFLHSWTNLRLQTLPPVQLAQKYFQIFSEEKDPLWQDPCEDKRHKDIWSKEKTCDRFPKLLIIGPQKTGTTALYLFLGMHPDLSSNYPSSETFEEIQFFNGHNYHKGIDWYMEFFPIPSNTTSDFYFEKSANYFDSEVAPRRAAALLPKAKVLTILINPADRAYSWYQHQRAHDDPVALKYTFHEVITAGSDASSKLRALQNRCLVPGWYATHIERWLSAYHANQILVLDGKLLRTEPAKVMDMVQKFLGVTNTIDYHKTLAFDPKKGFWCQLLEGGKTKCLGKSKGRKYPEMDLDSRAFLKDYYRDHNIELSKLLYKMGQTLPTWLREDLQNTR [NDST1] | -0.0442 | -0.0111 |
| MPGVARLPLLLGLLLLPRPGRPLDLADYTYDLAEEDDSEPLNYKDPCKAAAFLGDIALDEEDLRAFQVQQAVDLRRHTARKSSIKAAVPGNTSTPSCQSTNGQPQRGACGRWRGRSRSRRAATSRPERVWPDGVIPFVIGGNFTGSQRAVFRQAMRHWEKHTCVTFLERTDEDSYIVFTYRPCGCCSYVGRRGGGPQAISIGKNCDKFGIVVHELGHVVGFWHEHTRPDRDRHVSIVRENIQPGQEYNFLKMEPQEVESLGETYDFDSIMHYARNTFSRGIFLDTIVPKYEVNGVKPPIGQRTRLSKGDIAQARKLYKCPACGETLQDSTGNFSSPEYPNGYSAHMHCVWRISVTPGEKIILNFTSLDLYRSRLCWYDYVEVRDGFWRKAPLRGRFCGSKLPEPIVSTDSRLWVEFRSSSNWVGKGFFAVYEAICGGDVKKDYGHIQSPNYPDDYRPSKVCIWRIQVSEGFHVGLTFQSFEIERHDSCAYDYLEVRDGHSESSTLIGRYCGYEKPDDIKSTSSRLWLKFVSDGSINKAGFAVNFFKEVDECSRPNRGGCEQRCLNTLGSYKCSCDPGYELAPDKRRCEAACGGFLTKLNGSITSPGWPKEYPPNKNCIWQLVAPTQYRISLQFDFFETEGNDVCKYDFVEVRSGLTADSKLHGKFCGSEKPEVITSQYNNMRVEFKSDNTVSKKGFKAHFFSDKDECSKDNGGCQQDCVNTFGSYECQCRSGFVLHDNKHDCKEAGCDHKVTSTSGTITSPNWPDKYPSKKECTWAISSTPGHRVKLTFMEMDIESQPECAYDHLEVFDGRDAKAPVLGRFCGSKKPEPVLATGSRMFLRFYSDNSVQRKGFQASHATECGGQVRADVKTKDLYSHAQFGDNNYPGGVDCEWVIVAEEGYGVELVFQTFEVEEETDCGYDYMELFDGYDSTAPRLGRYCGSGPPEEVYSAGDSVLVKFHSDDTITKKGFHLRYTSTKFQDTLHSRK [BMP1] | -0.299 | -0.301 |
| MPKIVLNGVTVDFPFQPYKCQQEYMTKVLECLQQKVNGILESPTGTGKTLCLLCTTLAWREHLRDGISARKIAERAQGELFPDRALSSWGNAAAAAGDPIACYTDIPKIIYASRTHSQLTQVINELRNTSYRPKVCVLGSREQLCIHPEVKKQESNHLQIHLCRKKVASRSCHFYNNVEEKSLEQELASPILDIEDLVKSGSKHRVCPYYLSRNLKQQADIIFMPYNYLLDAKSRRAHNIDLKGTVVIFDEAHNVEKMCEESASFDLTPHDLASGLDVIDQVLEEQTKAAQQGEPHPEFSADSPSPGLNMELEDIAKLKMILLRLEGAIDAVELPGDDSGVTKPGSYIFELFAEAQITFQTKGCILDSLDQIIQHLAGRAGVFTNTAGLQKLADIIQIVFSVDPSEGSPGSPAGLGALQSYKVHIHPDAGHRRTAQRSDAWSTTAARKRGKVLSYWCFSPGHSMHELVRQGVRSLILTSGTLAPVSSFALEMQIPFPVCLENPHIIDKHQIWVGVVPRGPDGAQLSSAFDRRFSEECLSSLGKALGNIARVVPYGLLIFFPSYPVMEKSLEFWRARDLARKMEALKPLFVEPRSKGSFSETISAYYARVAAPGSTGATFLAVCRGKASEGLDFSDTNGRGVIVTGLPYPPRMDPRVVLKMQFLDEMKGQGGAGGQFLSGQEWYRQQASRAVNQAIGRVIRHRQDYGAVFLCDHRFAFADARAQLPSWVRPHVRVYDNFGHVIRDVAQFFRVAERTMPAPAPRATAPSVRGEDAVSEAKSPGPFFSTRKAKSLDLHVPSLKQRSSGSPAAGDPESSLCVEYEQEPVPARQRPRGLLAALEHSEQRAGSPGEEQAHSCSTLSLLSEKRPAEEPRGGRKKIRLVSHPEEPVAGAQTDRAKLFMVAVKQELSQANFATFTQALQDYKGSDDFAALAACLGPLFAEDPKKHNLLQGFYQFVRPHHKQQFEEVCIQLTGRGCGYRPEHSIPRRQRAQPVLDPTGRTAPDPKLTVSTAAAQQLDPQEHLNQGRPHLSPRPPPTGDPGSQPQWGSGVPRAGKQGQHAVSAYLADARRALGSAGCSQLLAALTAYKQDDDLDKVLAVLAALTTAKPEDFPLLHRFSMFVRPHHKQRFSQTCTDLTGRPYPGMEPPGPQEERLAVPPVLTHRAPQPGPSRSEKTGKTQSKISSFLRQRPAGTVGAGGEDAGPSQSSGPPHGPAASEWGL [RTEL1] | -0.0713 | -0.104 |
| MPPQLQETRMNRSIPVEVDESEPYPSQLLKPIPEYSPEEESEPPAPNIRNMAPNSLSAPTMLHNSSGDFSQAHSTLKLANHQRPVSRQVTCLRTQVLEDSEDSFCRRHPGLGKAFPSGCSAVSEPASESVVGALPAEHQFSFMEKRNQWLVSQLSAASPDTGHDSDKSDQSLPNASADSLGGSQEMVQRPQPHRNRAGLDLPTIDTGYDSQPQDVLGIRQLERPLPLTSVCYPQDLPRPLRSREFPQFEPQRYPACAQMLPPNLSPHAPWNYHYHCPGSPDHQVPYGHDYPRAAYQQVIQPALPGQPLPGASVRGLHPVQKVILNYPSPWDHEERPAQRDCSFPGLPRHQDQPHHQPPNRAGAPGESLECPAELRPQVPQPPSPAAVPRPPSNPPARGTLKTSNLPEELRKVFITYSMDTAMEVVKFVNFLLVNGFQTAIDIFEDRIRGIDIIKWMERYLRDKTVMIIVAISPKYKQDVEGAESQLDEDEHGLHTKYIHRMMQIEFIKQGSMNFRFIPVLFPNAKKEHVPTWLQNTHVYSWPKNKKNILLRLLREEEYVAPPRGPLPTLQVVPL [TRAF3IP2] | -0.199 | 0.168 |
| MPVHSRGDKKETNHHDEMEVDYAENEGSSSEDEDTESSSVSEDGDSSEMDDEDCERRRMECLDEMSNLEKQFTDLKDQLYKERLSQVDAKLQEVIAGKAPEYLEPLATLQENMQIRTKVAGIYRELCLESVKNKYECEIQASRQHCESEKLLLYDTVQSELEEKIRRLEEDRHSIDITSELWNDELQSRKKRKDPFSPDKKKPVVVSGPYIVYMLQDLDILEDWTTIRKAMATLGPHRVKTEPPVKLEKHLHSARSEEGRLYYDGEWYIRGQTICIDKKDECPTSAVITTINHDEVWFKRPDGSKSKLYISQLQKGKYSIKHS [BRMS1L] | -0.0165 | -0.0561 |
| MQVPQDGEDLAGQPWYHGLLSRQKAEALLQQNGDFLVRASGSRGGNPVISCRWRGSALHFEVFRVALRPRPGRPTALFQLEDEQFPSIPALVHSYMTGRRPLSQATGAVVSRPVTWQGPLRRSFSEDTLMDGPARIEPLRARKWSNSQPADLAHMGRSREDPAGMEASTMPISALPRTSSDPVLLKAPAPLGTVADSLRASDGQLQAKAPTKPPRTPSFELPDASERPPTYCELVPRVPSVQGTSPSQSCPEPEAPWWEAEEDEEEENRCFTRPQAEISFCPHDAPSCLLGPQNRPLEPQVLHTLRGLFLEHHPGSTALHLLLVDCQATGLLGVTRDQRGNMGVSSGLELLTLPHGHHLRLELLERHQTLALAGALAVLGCSGPLEERAAALRGLVELALALRPGAAGDLPGLAAVMGALLMPQVSRLEHTWRQLRRSHTEAALAFEQELKPLMRALDEGAGPCDPGEVALPHVAPMVRLLEGEEVAGPLDESCERLLRTLHGARHMVRDAPKFRKVAAQRLRGFRPNPELREALTTGFVRRLLWGSRGAGAPRAERFEKFQRVLGVLSQRLEPDR [SH2D3A] | 0.386 | 0.0323 |
| MRDADADAGGGADGGDGRGGHSCRGGVDTAAAPAGGAPPAHAPGPGRDAASAARGSRMRPHIFTLSVPFPTPLEAEIAHGSLAPDAEPHQRVVGKDLTVSGRILVVRWKAEDCRLLRISVINFLDQLSLVVRTMQRFGPPVSR [LAGE3] | 0.0355 | 0.0284 |
| MRPLDIVELAEPEEVEVLEPEEDFEQFLLPVINEMREDIASLTREHGRAYLRNRSKLWEMDNMLIQIKTQVEASEESALNHLQNPGDAAEGRAAKRCEKAEEKAKEIAKMAEMLVELVRRIEKSESS [MRFAP1] | 0.156 | 0.549 |
